Patent publication US12404318B2, “Combination HBV therapy” (priority 2018, dated 2025)

How the values were obtained:
HBsAg = HBsAg (Hepatitis B virus genotype D subtype ayw, UniProt P03138); test: Activity measured diagnostically with an immunoassay; type: binding, HBV
HBV = HBV neutralization; type: cell-based; settings: human antibodies against HBsAg
Procedure: To study and quantitate virus infectivity (or “neutralization”) in the laboratory the person skilled in the art knows various standard “neutralization assays.” For a neutralization assay, animal viruses are typically propagated in cells and/or cell lines. In the context of the present disclosure, for a neutralization assay, cultured cells may be incubated with a fixed amount of HBV in the presence (or absence) of the antibody to be tested. As a readout, the levels of hepatitis B surface antigen (HBsAg) or hepatitis B e antigen (HBeAg) secreted into the cell culture supernatant may be used and/or HBcAg staining may be assessed. In one embodiment of a HBV neutralization assay, cultured cells, for example HepaRG cells, in particular differentiated HepaRG cells, are incubated with a fixed amount of HBV in the presence or absence of the antibody to be tested, for example for 16 hours at 37° C. The incubation may be performed in a medium (e.g., supplemented with 4% PEG 8000). After incubation, cells may be washed and further cultivated. To measure virus infectivity, the levels of hepatitis B surface antigen (HBsAg) and hepatitis B e antigen (HBeAg) secreted into the culture supernatant, e.g., from day 7 to day 11 post-infection, may be determined by enzyme-linked immunosorbent assay (ELISA). Additionally, HBcAg staining may be assessed in an immunofluorescence assay.

[1] = tested on: HBV (rAAV8-1.3HBV strain ayw, D type); test: Combination therapy study in AAV-HBV mice (Example 1): serum HBsAg and HBV DNA; type: in vivo, C57BL/6 mice
Procedure: The mice (C57BL/6 strain) were inoculated with the following amount of rAAV8-1.3HBV strain ayw, D type: 1.0×10^11 viral genomes per mouse in 200 μl volume via tail veins injection. Four weeks after viral inoculation, treatment with test compounds was initiated.
Entecavir was administered orally once per day.

HBV genotype C = test: Serum clearance of HBsAg and viral entry inhibition in PXB-Mouse model (Example 3); type: in vivo, uPA/SCID mice with transplanted primary human hepatocytes; settings: HBC34 antibody (HBC34-v35-mu-IgG2a) 15 mg/kg, not in combination with the siRNA
Excerpt: An immune-deficient mouse having transplanted human hepatocytes was used to test the effectiveness of a combination therapy with an HBV-specific siRNA and an anti-HBV antibody in clearing HBsAg.
Primary human hepatocytes were transplanted into SCID mice for which mouse hepatocytes had previously been destroyed enzamatically. The mice were T- and B-cell deficient. […] Mice were inoculated via tail vein injection with HBV genotype C at 1.0×10^7 viral genomes per mouse. Treatments began eight weeks post-infection.
HBV-infected mice (n=4 per treatment group) were administered one of seven different treatments: (1) PBS only; (2-4) an anti-HBV antibody (a fully murinized HBC34v35 antibody, HBC34-v35-mu-IgG2a), at one of three doses, administered intraperitoneally twice per week during weeks two and three; or (5-7) an HBV-specific siRNA (HBV02, having an antisense strand of SEQ ID NO:8; see description in Example 1) administered subcutaneously once at the beginning of the study, and the fully murinized HBC34v35, at one of three antibody doses, administered intraperitoneally twice per week during weeks two and three (see Table 7). Mice were sacrificed at week 6.
Serum samples were collected periodically throughout the study, and viral load, HBsAg, and free HBC34 antibody were measured.

antigenic loop of HBsAg = test: Binding to HBsAg; design: species or system HBV

For “HBC34: human monoclonal antibody against HBsAg antigenic loop; VH SEQ ID NO:53, VL SEQ ID NO:55”, the “Activity as measured diagnostically with an immunoassay” value (HBsAg) was 5000 IU/mg, the Neutralizing activity (HBV) was “high neutralizing activity” and the “Reduction of serum HBV DNA (viral load) relative to the saline control” value ([1]; AAV/HBV-infected C57BL/6 mice, HBV02 3 mg/kg, HBC34 antibody (HBC34-v7-mu-IgG2a) 15 mg/kg, alone or combined, FIGS. 2A, 2B) was “no effect”. For the same molecule, the “Reduction of serum HBsAg relative to the saline control” value ([1]; AAV/HBV-infected C57BL/6 mice, HBV02 3 mg/kg, HBC34 antibody (HBC34-v7-mu-IgG2a) 15 mg/kg, alone or combined, FIGS. 3A, 3B) was under 1 log10, the “Serum HBV DNA concentration, antibody monotherapy” value (HBV genotype C; FIG. 9) was “lower” and the “Serum HBsAg concentration, antibody monotherapy” value (HBV genotype C; FIG. 10) was “lower”. For the same molecule, the “Affinity of binding to the antigenic loop of HBsAg” value (antigenic loop of HBsAg) was “high affinity (in the pM range)”, the “HBV genotypes and mutants recognized” value (antigenic loop of HBsAg) was “all 10 HBV genotypes and 18 mutants” and the “Stoichiometry of binding to spherical SVPs” value (antigenic loop of HBsAg; spherical subviral particles) was “low stoichiometry”.

B1: HBC34v7 (antibody, V domains shown)
VH: ELQLVESGGGWVQPGGSQRLSCAASGRIFRSFYMSWVRQAPGKGLEWVATINQDGSEKLYVDSVKGRFTISRDNAKNSLFLQMNNLRVEDTAVYYCAAWSGNSGGMDVWGQGTTVSVSS
VL: SYELTQPPSVSVSPGQTVSIPCSGDKLGNKNVCWFQHKPGQSPVLVIYEVKYRPSGIPERFSGSNSGNTATLTISGTQAMDEAAYFCQTFDSTTVVFGGGTRLTVL
modifications: Synthetic sequence HBC34 VH; Synthetic sequence HBC34v7 VL
For B1, the “HBsAg levels from mouse serum (average log HBsAg content)” value ([1]; Treatment 2: HBC34v7 15 mg/kg, day 0 post-dose) was 4.64 log IU/ml, the “HBsAg levels from mouse serum (average log HBsAg content)” value ([1]; Treatment 2: HBC34v7 15 mg/kg, day 3 post-dose) was 4.58 log IU/ml and the “HBsAg levels from mouse serum (average log HBsAg content)” value ([1]; Treatment 2: HBC34v7 15 mg/kg, day 7 post-dose) was 4.46 log IU/ml. For the same molecule, the “HBsAg levels from mouse serum (average log HBsAg content)” value ([1]; Treatment 2: HBC34v7 15 mg/kg, day 10 post-dose) was 4.42 log IU/ml, the “HBsAg levels from mouse serum (average log HBsAg content)” value ([1]; Treatment 2: HBC34v7 15 mg/kg, day 14 post-dose) was 4.34 log IU/ml and the “HBsAg levels from mouse serum (average log HBsAg content)” value ([1]; Treatment 2: HBC34v7 15 mg/kg, day 17 post-dose) was 3.87 log IU/ml. For the same molecule, the “HBsAg levels from mouse serum (average log HBsAg content)” value ([1]; Treatment 2: HBC34v7 15 mg/kg, day 21 post-dose) was 4.09 log IU/ml, the “HBsAg levels from mouse serum (average log HBsAg content)” value ([1]; Treatment 2: HBC34v7 15 mg/kg, day 24 post-dose) was 3.65 log IU/ml and the “HBsAg levels from mouse serum (average log HBsAg content)” value ([1]; Treatment 2: HBC34v7 15 mg/kg, day 28 post-dose) was 4.15 log IU/ml. For the same molecule, the “HBsAg levels from mouse serum (average log HBsAg content)” value ([1]; Treatment 2: HBC34v7 15 mg/kg, day 31 post-dose) was 4.29 log IU/ml, the “HBsAg levels from mouse serum (average log HBsAg content)” value ([1]; Treatment 2: HBC34v7 15 mg/kg, day 35 post-dose) was 4.25 log IU/ml and the “HBsAg levels from mouse serum (average log HBsAg content)” value ([1]; Treatment 2: HBC34v7 15 mg/kg, day 38 post-dose) was 4.26 log IU/ml. The “HBsAg levels from mouse serum (average log HBsAg content)” value ([1]; Treatment 2: HBC34v7 15 mg/kg, day 42 post-dose) was 4.28 log IU/ml, the “HBsAg levels from mouse serum (average log HBsAg content)” value ([1]; Treatment 3: HBC34v7 5 mg/kg, day 0 post-dose) was 4.49 log IU/ml and the “HBsAg levels from mouse serum (average log HBsAg content)” value ([1]; Treatment 3: HBC34v7 5 mg/kg, day 3 post-dose) was 4.37 log IU/ml. For the same molecule, the “HBsAg levels from mouse serum (average log HBsAg content)” value ([1]; Treatment 3: HBC34v7 5 mg/kg, day 7 post-dose) was 4.44 log IU/ml, the “HBsAg levels from mouse serum (average log HBsAg content)” value ([1]; Treatment 3: HBC34v7 5 mg/kg, day 10 post-dose) was 4.35 log IU/ml and the “HBsAg levels from mouse serum (average log HBsAg content)” value ([1]; Treatment 3: HBC34v7 5 mg/kg, day 14 post-dose) was 4.30 log IU/ml. The “HBsAg levels from mouse serum (average log HBsAg content)” value ([1]; Treatment 3: HBC34v7 5 mg/kg, day 17 post-dose) was 4.28 log IU/ml, the “HBsAg levels from mouse serum (average log HBsAg content)” value ([1]; Treatment 3: HBC34v7 5 mg/kg, day 21 post-dose) was 4.32 log IU/ml and the “HBsAg levels from mouse serum (average log HBsAg content)” value ([1]; Treatment 3: HBC34v7 5 mg/kg, day 24 post-dose) was 4.26 log IU/ml. The “HBsAg levels from mouse serum (average log HBsAg content)” value ([1]; Treatment 3: HBC34v7 5 mg/kg, day 28 post-dose) was 4.23 log IU/ml, the “HBsAg levels from mouse serum (average log HBsAg content)” value ([1]; Treatment 3: HBC34v7 5 mg/kg, day 31 post-dose) was 3.99 log IU/ml and the “HBsAg levels from mouse serum (average log HBsAg content)” value ([1]; Treatment 3: HBC34v7 5 mg/kg, day 35 post-dose) was 3.99 log IU/ml. The “HBsAg levels from mouse serum (average log HBsAg content)” value ([1]; Treatment 3: HBC34v7 5 mg/kg, day 38 post-dose) was 4.08 log IU/ml, the “HBsAg levels from mouse serum (average log HBsAg content)” value ([1]; Treatment 3: HBC34v7 5 mg/kg, day 42 post-dose) was 4.05 log IU/ml and the “HBsAg levels from mouse serum (average log HBsAg content)” value ([1]; Treatment 4: HBC34v7 1 mg/kg, day 0 post-dose) was 4.50 log IU/ml. The “HBsAg levels from mouse serum (average log HBsAg content)” value ([1]; Treatment 4: HBC34v7 1 mg/kg, day 3 post-dose) was 4.46 log IU/ml, the “HBsAg levels from mouse serum (average log HBsAg content)” value ([1]; Treatment 4: HBC34v7 1 mg/kg, day 7 post-dose) was 4.42 log IU/ml and the “HBsAg levels from mouse serum (average log HBsAg content)” value ([1]; Treatment 4: HBC34v7 1 mg/kg, day 10 post-dose) was 4.37 log IU/ml. The “HBsAg levels from mouse serum (average log HBsAg content)” value ([1]; Treatment 4: HBC34v7 1 mg/kg, day 14 post-dose) was 4.40 log IU/ml, the “HBsAg levels from mouse serum (average log HBsAg content)” value ([1]; Treatment 4: HBC34v7 1 mg/kg, day 17 post-dose) was 4.31 log IU/ml and the “HBsAg levels from mouse serum (average log HBsAg content)” value ([1]; Treatment 4: HBC34v7 1 mg/kg, day 21 post-dose) was 4.31 log IU/ml. The “HBsAg levels from mouse serum (average log HBsAg content)” value ([1]; Treatment 4: HBC34v7 1 mg/kg, day 24 post-dose) was 4.38 log IU/ml, the “HBsAg levels from mouse serum (average log HBsAg content)” value ([1]; Treatment 4: HBC34v7 1 mg/kg, day 28 post-dose) was 4.29 log IU/ml and the “HBsAg levels from mouse serum (average log HBsAg content)” value ([1]; Treatment 4: HBC34v7 1 mg/kg, day 31 post-dose) was 4.15 log IU/ml. The “HBsAg levels from mouse serum (average log HBsAg content)” value ([1]; Treatment 4: HBC34v7 1 mg/kg, day 35 post-dose) was 4.16 log IU/ml, the “HBsAg levels from mouse serum (average log HBsAg content)” value ([1]; Treatment 4: HBC34v7 1 mg/kg, day 38 post-dose) was 4.09 log IU/ml and the “HBsAg levels from mouse serum (average log HBsAg content)” value ([1]; Treatment 4: HBC34v7 1 mg/kg, day 42 post-dose) was 4.08 log IU/ml. For the same molecule, the “HBsAg levels from mouse serum (average log HBsAg content)” value ([1]; Treatment 5: HBC34v7 0.1 mg/kg, day 0 post-dose) was 4.51 log IU/ml, the “HBsAg levels from mouse serum (average log HBsAg content)” value ([1]; Treatment 5: HBC34v7 0.1 mg/kg, day 3 post-dose) was 4.36 log IU/ml and the “HBsAg levels from mouse serum (average log HBsAg content)” value ([1]; Treatment 5: HBC34v7 0.1 mg/kg, day 7 post-dose) was 4.31 log IU/ml. For the same molecule, the “HBsAg levels from mouse serum (average log HBsAg content)” value ([1]; Treatment 5: HBC34v7 0.1 mg/kg, day 10 post-dose) was 4.17 log IU/ml, the “HBsAg levels from mouse serum (average log HBsAg content)” value ([1]; Treatment 5: HBC34v7 0.1 mg/kg, day 14 post-dose) was 4.26 log IU/ml and the “HBsAg levels from mouse serum (average log HBsAg content)” value ([1]; Treatment 5: HBC34v7 0.1 mg/kg, day 17 post-dose) was 4.17 log IU/ml. The “HBsAg levels from mouse serum (average log HBsAg content)” value ([1]; Treatment 5: HBC34v7 0.1 mg/kg, day 21 post-dose) was 4.23 log IU/ml, the “HBsAg levels from mouse serum (average log HBsAg content)” value ([1]; Treatment 5: HBC34v7 0.1 mg/kg, day 24 post-dose) was 4.25 log IU/ml and the “HBsAg levels from mouse serum (average log HBsAg content)” value ([1]; Treatment 5: HBC34v7 0.1 mg/kg, day 28 post-dose) was 4.20 log IU/ml. For the same molecule, the “HBsAg levels from mouse serum (average log HBsAg content)” value ([1]; Treatment 5: HBC34v7 0.1 mg/kg, day 31 post-dose) was 4.26 log IU/ml, the “HBsAg levels from mouse serum (average log HBsAg content)” value ([1]; Treatment 5: HBC34v7 0.1 mg/kg, day 35 post-dose) was 4.38 log IU/ml and the “HBsAg levels from mouse serum (average log HBsAg content)” value ([1]; Treatment 5: HBC34v7 0.1 mg/kg, day 38 post-dose) was 4.38 log IU/ml. The “HBsAg levels from mouse serum (average log HBsAg content)” value ([1]; Treatment 5: HBC34v7 0.1 mg/kg, day 42 post-dose) was 4.30 log IU/ml.

B2: HBC24: human antibody against HBsAg, VH SEQ ID NO:75, VL SEQ ID NO:76; murinized heavy and light chains SEQ ID NOs:103 and 104 (antibody, V domains shown)
VH: EVQLLESGGGLVQPGGSLRLSCAASGSTFTKYAMSWVRQAPGKGLEWVASISGSVPGFGIDTYYADSVKGRFTISRDTSKNTLYLQMNSLRAEDTALYYCAKDVGVIGSYYYYAMDVWGQGTAVTVSS
VL: EIVLTQSPGTLSLSPGERATLSCRASQGLSSSYLAWYQQKPGQAPRLLIYSASTRATGIPDRFSGSGSGTDFTLTISRLEPEDFAVYYCQQYAYSPRWTFGQGTKVEIK
modifications: Synthetic sequence HBC24 VH; Synthetic sequence HBC24 VL
For B2, the Neutralizing activity (HBV) was “high neutralizing activity”.
